Laboratory results as given in patent publication US20050069887A1, “Dna synthesis promoters dna polymerase-associated factors and utilization thereof” (priority 2001, published 2005).
Values belong to the molecule of their own block, whether it stands above or below them.

Tests used:
M13 single-stranded DNA = conditions: Takagi et al. 1997; cited from earlier work
pMol 21 = conditions: PCR product fidelity, rpsL / pMol 21 method; cited from earlier work
[1] = target: T1, KOD DNA polymerase (DNA polymerase derived from Thermococcus kodakaraensis KOD1) (Thermococcus kodakaraensis KOD1, UniProt P77933 1-1671); assay: cell-based or functional assay
T1 sequence: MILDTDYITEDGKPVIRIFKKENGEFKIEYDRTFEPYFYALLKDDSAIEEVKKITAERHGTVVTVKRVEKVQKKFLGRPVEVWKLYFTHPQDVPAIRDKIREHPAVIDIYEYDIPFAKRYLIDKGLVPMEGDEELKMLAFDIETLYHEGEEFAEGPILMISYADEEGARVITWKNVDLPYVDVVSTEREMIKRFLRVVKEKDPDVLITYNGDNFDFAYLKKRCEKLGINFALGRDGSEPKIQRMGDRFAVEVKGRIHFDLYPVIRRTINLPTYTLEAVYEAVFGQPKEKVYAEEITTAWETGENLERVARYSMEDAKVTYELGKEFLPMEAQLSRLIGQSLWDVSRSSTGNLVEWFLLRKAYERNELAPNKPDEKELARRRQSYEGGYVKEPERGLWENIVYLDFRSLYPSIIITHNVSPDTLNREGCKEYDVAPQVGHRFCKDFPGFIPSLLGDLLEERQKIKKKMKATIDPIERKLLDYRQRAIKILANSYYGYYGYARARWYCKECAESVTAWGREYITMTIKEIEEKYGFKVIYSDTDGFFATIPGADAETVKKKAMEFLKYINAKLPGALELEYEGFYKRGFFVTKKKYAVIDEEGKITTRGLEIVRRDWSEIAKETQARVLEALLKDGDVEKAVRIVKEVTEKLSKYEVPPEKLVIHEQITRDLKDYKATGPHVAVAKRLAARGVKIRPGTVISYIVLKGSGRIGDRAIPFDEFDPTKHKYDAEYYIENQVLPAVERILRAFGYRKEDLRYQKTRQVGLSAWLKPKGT

[2] = target: the molecule itself; assay: gel filtration HPLC (TSKgel G3000SW), molecular weight against standard samples

Molecule: Taq polymerase: DNA polymerase derived from Thermus aquaticus
DNA elongation rate (M13 single-stranded DNA): 61.0 bases/second
mutation rate (pMol 21): ≥ 4%

B1: Pfu polymerase: DNA polymerase derived from Pyrococcus furiosus (protein, UniProt P61875 1-775, looked up)
DNA polymerase: MILDVDYITEEGKPVIRLFKKENGKFKIEHDRTFRPYIYALLRDDSKIEEVKKITGERHGKIVRIVDVEKVEKKFLGKPITVWKLYLEHPQDVPTIREKVREHPAVVDIFEYDIPFAKRYLIDKGLIPMEGEEELKILAFDIETLYHEGEEFGKGPIIMISYADENEAKVITWKNIDLPYVEVVSSEREMIKRFLRIIREKDPDIIVTYNGDSFDFPYLAKRAEKLGIKLTIGRDGSEPKMQRIGDMTAVEVKGRIHFDLYHVITRTINLPTYTLEAVYEAIFGKPKEKVYADEIAKAWESGENLERVAKYSMEDAKATYELGKEFLPMEIQLSRLVGQPLWDVSRSSTGNLVEWFLLRKAYERNEVAPNKPSEEEYQRRLRESYTGGFVKEPEKGLWENIVYLDFRALYPSIIITHNVSPDTLNLEGCKNYDIAPQVGHKFCKDIPGFIPSLLGHLLEERQKIKTKMKETQDPIEKILLDYRQKAIKLLANSFYGYYGYAKARWYCKECAESVTAWGRKYIELVWKELEEKFGFKVLYIDTDGLYATIPGGESEEIKKKALEFVKYINSKLPGLLELEYEGFYKRGFFVTKKRYAVIDEEGKVITRGLEIVRRDWSEIAKETQARVLETILKHGDVEEAVRIVKEVIQKLANYEIPPEKLAIYEQITRPLHEYKAIGPHVAVAKKLAAKGVKIKPGMVIGYIVLRGDGPISNRAILAEEYDPKKHKYDAEYYIENQVLPAVLRILEGFGYRKEDLRYQKTRQVGLTSWLNIKKS
DNA elongation rate (M13 single-stranded DNA): 24.8 bases/second

DNA elongation rate relative to the sample with no PCNA added [1]: ~3 times
B2: KOD-PCNA (proliferating cell nuclear antigen) derived from Thermococcus kodakaraensis KOD1 (other)
chain: PFEVVFDGAKEFADLIATASNLIDEAAFKFTEEGISMRAMDPSRVVLIDLNLPESIFSKYEVEEPETIGINMDQFKKILKRGKAKDTLILRKGDENFLEITFEGTAKRTFRLPLIDVEELELELPELPFTAKVVLLGEVLKEGIKDASLVSDAIKFIAKENEFTMKAEGETNEVEIRLTLEDEGLLDLEVEEETKSAYGISYLSDMVKGIGKADEVILRFGNEMPLQMEYMIRDEGRLTFLLAPRVEE
notes: also called KOD-PCNA protein; KOD-PCNA complex
binding result [2]: binds
